One may read the stoichiometry N as a count of units in the complex or per binding partner.

This test addresses mCardinal. In words: SEC + AUC.

As to mCardinal, the stoichiometry N was found to be 2.

(Values after doi:10.1101/162842.)
